T1: AND‐1 (human, UniProt O75717 1-1129)
T1 construct: AND-1, human; Only the trimer of SepB domains is ordered in the map; source: Hi5 insect cells (baculovirus), purified (Flag M2, MonoQ, Superdex 200)
T1 sequence: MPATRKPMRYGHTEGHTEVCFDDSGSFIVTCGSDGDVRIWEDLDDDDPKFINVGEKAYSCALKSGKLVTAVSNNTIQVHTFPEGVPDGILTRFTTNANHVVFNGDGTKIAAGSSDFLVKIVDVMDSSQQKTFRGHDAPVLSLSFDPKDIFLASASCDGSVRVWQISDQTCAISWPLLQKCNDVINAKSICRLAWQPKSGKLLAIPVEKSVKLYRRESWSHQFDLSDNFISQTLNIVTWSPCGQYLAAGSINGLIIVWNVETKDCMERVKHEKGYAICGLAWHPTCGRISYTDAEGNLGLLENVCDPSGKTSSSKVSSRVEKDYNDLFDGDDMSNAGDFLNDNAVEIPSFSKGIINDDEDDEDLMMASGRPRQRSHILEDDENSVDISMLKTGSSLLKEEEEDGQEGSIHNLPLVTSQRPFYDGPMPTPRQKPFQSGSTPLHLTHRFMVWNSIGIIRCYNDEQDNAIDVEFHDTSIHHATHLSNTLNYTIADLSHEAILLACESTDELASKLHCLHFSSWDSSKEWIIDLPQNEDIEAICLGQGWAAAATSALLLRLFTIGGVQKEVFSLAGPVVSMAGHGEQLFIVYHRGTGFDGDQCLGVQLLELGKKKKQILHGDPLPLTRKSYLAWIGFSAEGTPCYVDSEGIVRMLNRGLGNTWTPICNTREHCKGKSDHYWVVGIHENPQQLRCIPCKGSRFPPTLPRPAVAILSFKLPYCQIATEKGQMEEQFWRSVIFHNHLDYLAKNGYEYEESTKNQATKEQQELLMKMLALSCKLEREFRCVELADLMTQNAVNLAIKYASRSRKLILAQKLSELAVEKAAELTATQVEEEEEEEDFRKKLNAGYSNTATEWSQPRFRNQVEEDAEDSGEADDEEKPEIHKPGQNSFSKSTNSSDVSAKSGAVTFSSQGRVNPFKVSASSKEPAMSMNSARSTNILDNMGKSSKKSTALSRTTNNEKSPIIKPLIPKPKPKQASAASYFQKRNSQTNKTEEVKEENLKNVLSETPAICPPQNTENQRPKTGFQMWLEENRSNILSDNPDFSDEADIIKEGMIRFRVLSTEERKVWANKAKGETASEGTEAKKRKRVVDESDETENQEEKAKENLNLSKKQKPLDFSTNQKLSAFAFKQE


Assays:
AND‐1 = target: T1, AND‐1; test: cryo-EM structure; replisome reconstituted on fork DNA with AMP-PNP, isolated on a glycerol gradient with glutaraldehyde and BS3; 3.2 Å overall; a sample without CLASPIN solved at 3.4 Å; conditions: both partners purified
POLE1 = target: T2, POLE1 (human, UniProt Q07864 1-2286); test: as above; conditions: both partners purified
T2 construct: POLE1, catalytic subunit of Pol ε, human; Stood in the structure as a subunit of m2; residues 1,371-2,280 modelled; also called POLE1 catalytic subunit; POLE1^nonCat (the modelled C-terminal non-catalytic domain); source: Hi5 insect cells, purified as a subunit of Pol ε
T2 sequence (Q07864 whole entry, the tested form may be a part): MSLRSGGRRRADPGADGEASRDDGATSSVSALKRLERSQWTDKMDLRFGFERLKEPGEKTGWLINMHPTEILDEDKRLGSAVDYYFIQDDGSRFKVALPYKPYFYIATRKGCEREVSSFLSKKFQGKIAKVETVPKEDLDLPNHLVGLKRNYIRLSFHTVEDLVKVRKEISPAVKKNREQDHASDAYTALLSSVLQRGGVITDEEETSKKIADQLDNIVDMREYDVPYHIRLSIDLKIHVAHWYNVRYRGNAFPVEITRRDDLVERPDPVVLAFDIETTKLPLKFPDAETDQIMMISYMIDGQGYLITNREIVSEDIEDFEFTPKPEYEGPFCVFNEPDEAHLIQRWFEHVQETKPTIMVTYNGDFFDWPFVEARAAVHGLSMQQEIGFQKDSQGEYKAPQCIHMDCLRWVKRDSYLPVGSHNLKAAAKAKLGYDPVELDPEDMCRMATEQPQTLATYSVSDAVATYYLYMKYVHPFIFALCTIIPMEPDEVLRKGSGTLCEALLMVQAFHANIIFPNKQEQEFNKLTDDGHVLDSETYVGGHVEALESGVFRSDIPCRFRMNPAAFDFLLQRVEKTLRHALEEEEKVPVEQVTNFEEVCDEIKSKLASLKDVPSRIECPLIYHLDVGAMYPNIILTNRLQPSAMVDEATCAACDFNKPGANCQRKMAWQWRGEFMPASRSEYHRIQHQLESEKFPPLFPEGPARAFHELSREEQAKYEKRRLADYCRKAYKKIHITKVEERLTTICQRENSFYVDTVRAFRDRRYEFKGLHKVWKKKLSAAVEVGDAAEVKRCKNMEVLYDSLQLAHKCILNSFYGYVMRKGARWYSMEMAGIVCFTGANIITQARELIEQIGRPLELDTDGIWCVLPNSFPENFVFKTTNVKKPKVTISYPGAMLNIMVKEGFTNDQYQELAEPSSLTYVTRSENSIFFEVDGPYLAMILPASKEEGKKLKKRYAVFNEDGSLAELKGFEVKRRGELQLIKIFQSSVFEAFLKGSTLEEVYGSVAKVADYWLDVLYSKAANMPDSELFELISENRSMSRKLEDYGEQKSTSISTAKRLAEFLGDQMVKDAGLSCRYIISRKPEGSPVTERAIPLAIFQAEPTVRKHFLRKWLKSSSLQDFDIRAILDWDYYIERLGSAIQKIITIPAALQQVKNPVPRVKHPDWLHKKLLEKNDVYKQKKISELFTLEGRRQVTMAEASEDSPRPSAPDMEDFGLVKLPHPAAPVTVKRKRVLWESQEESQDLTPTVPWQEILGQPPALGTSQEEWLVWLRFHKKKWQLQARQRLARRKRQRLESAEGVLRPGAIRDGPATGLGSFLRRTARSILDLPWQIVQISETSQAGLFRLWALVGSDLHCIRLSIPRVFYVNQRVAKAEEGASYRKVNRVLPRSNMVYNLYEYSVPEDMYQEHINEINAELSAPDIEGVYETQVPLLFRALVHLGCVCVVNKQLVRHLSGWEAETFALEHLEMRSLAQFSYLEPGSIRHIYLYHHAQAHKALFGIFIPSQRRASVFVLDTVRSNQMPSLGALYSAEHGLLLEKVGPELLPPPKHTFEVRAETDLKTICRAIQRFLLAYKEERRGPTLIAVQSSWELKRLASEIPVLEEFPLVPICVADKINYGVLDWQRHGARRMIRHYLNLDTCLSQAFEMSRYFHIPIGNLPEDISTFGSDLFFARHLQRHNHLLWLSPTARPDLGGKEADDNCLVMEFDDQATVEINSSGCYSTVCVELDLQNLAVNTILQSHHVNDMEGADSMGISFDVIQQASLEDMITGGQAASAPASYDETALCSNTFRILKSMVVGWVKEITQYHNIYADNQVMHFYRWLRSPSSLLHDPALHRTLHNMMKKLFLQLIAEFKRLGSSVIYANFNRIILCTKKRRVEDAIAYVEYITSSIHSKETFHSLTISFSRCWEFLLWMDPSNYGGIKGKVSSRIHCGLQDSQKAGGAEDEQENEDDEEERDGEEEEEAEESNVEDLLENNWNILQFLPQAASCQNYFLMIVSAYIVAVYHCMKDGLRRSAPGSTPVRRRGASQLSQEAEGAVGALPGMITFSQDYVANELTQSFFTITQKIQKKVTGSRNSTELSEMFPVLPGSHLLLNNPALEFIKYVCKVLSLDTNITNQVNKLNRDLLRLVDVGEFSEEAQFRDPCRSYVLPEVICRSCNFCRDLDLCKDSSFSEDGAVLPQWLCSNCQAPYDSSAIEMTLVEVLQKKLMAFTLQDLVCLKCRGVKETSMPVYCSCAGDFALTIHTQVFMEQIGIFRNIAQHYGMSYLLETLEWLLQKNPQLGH

Row | binding result (AND‐1) | binding result (POLE1) | Binder
1 | binds |  | PSF2 (natural protein, human, PSF2 (GINS subunit), human; Stood in the structure as a subunit of m1; also called PSF2 subunit of GINS; source: Hi5 insect cells, purified as a subunit of hsCMG) MDAAEVEFLAEKELVTIIPNFSLDKIYLIGGDLGPFNPGLPVEVPLWLAINLKQRQKCRLLPPEWMDVEKLEKMRDHERKEETFTPMPSPYYMELTKLLLNHASDNIPKADEIRTLVKDMWDTRIAKLRVSADSFVRQQEAHAKLDNLTLMEINTSGTFLTQALNHMYKLRTNLQPLESTQSQDF
2 | binds | binds | CDC45 (natural protein, human, UniProt O75419 1-566, looked up, CDC45, human; Stood in the structure as a subunit of m1; source: Hi5 insect cells, purified as a subunit of hsCMG) MFVSDFRKEFYEVVQSQRVLLFVASDVDALCACKILQALFQCDHVQYTLVPVSGWQELETAFLEHKEQFHYFILINCGANVDLLDILQPDEDTIFFVCDTHRPVNVVNVYNDTQIKLLIKQDDDLEVPAYEDIFRDEEEDEEHSGNDSDGSEPSEKRTRLEEEIVEQTMRRRQRREWEARRRDILFDYEQYEYHGTSSAMVMFELAWMLSKDLNDMLWWAIVGLTDQWVQDKITQMKYVTDVGVLQRHVSRHNHRNEDEENTLSVDCTRISFEYDLRLVLYQHWSLHDSLCNTSYTAARFKLWSVHGQKRLQEFLADMGLPLKQVKQKFQAMDISLKENLREMIEESANKFGMKDMRVQTFSIHFGFKHKFLASDVVFATMSLMESPEKDGSGTDHFIQALDSLSRSNLDKLYHGLELAKKQLRATQQTIASCLCTNLVISQGPFLYCSLMEGTPDVMLFSRPASLSLLSKHLLKSFVCSTKNRRCKLLPLVMAAPLSMEHGTVTVVGIPPETDSSDRKNFFGRAFEKAAESTSSRMLHNHFDLSVIELKAEDRSKFLDALISLLS
3 |  | binds | MCM5 (natural protein, human, MCM5, human; Stood in the structure as a subunit of m1; source: Hi5 insect cells, purified as a subunit of hsCMG) MSGFDDPGIFYSDSFGGDAQADEGQARKSQLQRRFKEFLRQYRVGTDRTGFTFKYRDELKRHYNLGEYWIEVEMEDLASFDEDLADYLYKQPAEHLQLLEEAAKEVADEVTRPRPSGEEVLQDIQVMLKSDASPSSIRSLKSDMMSHLVKIPGIIIAASAVRAKATRISIQCRSCRNTLTNIAMRPGLEGYALPRKCNTDQAGRPKCPLDPYFIMPDKCKCVDFQTLKLQELPDAVPHGEMPRHMQLYCDRYLCDKVVPGNRVTIMGIYSIKKFGLTTSRGRDRVGVGIRSSYIRVLGIQVDTDGSGRSFAGAVSPQEEEEFRRLAALPNVYEVISKSIAPSIFGGTDMKKAIACLLFGGSRKRLPDGLTRRGDINLLMLGDPGTAKSQLLKFVEKCSPIGVYTSGKGSSAAGLTASVMRDPSSRNFIMEGGAMVLADGGVVCIDEFDKMREDDRVAIHEAMEQQTISIAKAGITTTLNSRCSVLAAANSVFGRWDETKGEDNIDFMPTILSRFDMIFIVKDEHNEERDVMLAKHVITLHVSALTQTQAVEGEIDLAKLKKFIAYCRVKCGPRLSAEAAEKLKNRYIIMRSGARQHERDSDRRSSIPITVRQLEAIVRIAEALSKMKLQPFATEADVEEALRLFQVSTLDAALSGTLSGVEGFTSQEDQEMLSRIEKQLKRRFAIGSQVSEHSIIKDFTKQKYPEHAIHKVLQLMLRRGEIQHRMQRKVLYRLK
